B1: COVA2-15 (antibody, V domains shown)
VH: QVQLLESGGGLVQPGGSLRLSCAASGFTFSSYAMSWVRQAPGKGLEWASAISGSGGSTYYADSVEGRFTISRDNSKNTLYLQMNSLRAEDTAVYYCAKDTGYCGDDCYIKLIRGGPDYWGQGTLVTVSS
VL: DIVMTQSPLSLPVTLGQPASISCRSSQSLVYSDGNTFLNWFQQRPGQSPRRLIYQVSNRDSGVPDRFSGSGSGTDFTLKISRVEAEDVGVYYCMQGTHWPRTFGQGTKLEIK
B2: COVA2-34 (antibody, V domains shown)
VH: QVQLVESGGGVVQPGRSLRLSCAASGFTFSSYAMHWVRQAPGKGLEWVAVISYDGSNKYYADSVKGRFTISRDNSKNTLYLQMNSLRAEDTAVYYCARSASGSYYGAFDYWGQGTLVTVSS
VL: QTVVTQPASVSGSPGQSITISCTGTSSDVGGYNYVSWYQQHPGKAPKLMIYDVSNRPSGVSNRFSGSKSGNTASLTISGLQAEDEADYYCSSYTSSSTLGLYVFGTGTKVTVL
B3: COVA3-08 (antibody, V domains shown)
VH: EVQLVESGPGLVKPSETLSLTCTVSGGSISSYYWSWIRQPPGKGLEWIGYIYYSGSTNYNPSLKSRVTISVDTSKNQFSLRLSSVTAADTAVYYCARGPAATYYYYMDVWGKGTMVTVSS
VL: not shown
B4: COVA2-39 (antibody, V domains shown)
VH: QVQLVETGGGLIQPGGSLRLSCAASGFTVSSNYMSWVRQAPGKGLEWVSVIYTGGTTYYADSVKGRFTISRDNSKNTLYLQMNSLRAEDTAVYYCARAHVDTAMVESGAFDIWGQGTRVTVSS
VL: QSALTQPASVSGSPGQSITISCTGTSSDVGSYNLVSWYQQHPGKAPKLMIYEVTKRPSGVSNRFSGSKSGNTASLTISGLQAEDEADYYCCSYAGSSTWVFGGGTKLTVL
B5: CV07-270 (antibody, V domains shown)
VH: QVQLVESGGGLVKPGGSLRLSCAASGFTFSDYYMTWIRQAPGKGLEWVSYISSSGSTIYYADSVKGRFTISRDNAKNSLYLQMNSLRAEDTAVYYCARARGSSGWYRIGTRWGNWFDPWGQGTLVTVSS
VL: B4 VL with S31G, L34Y, T54S, K55N, C91S, A94T, G95S, T98N, W99V, K106M
B6: S304 (antibody, V domains shown)
VH: VQLVESGGGLVQPGGSLRLSCAASGFTFSSYDMHWVRQTTGKGLEWVSTIGTAGDTYYPDSVKGRFTISREDAKNSLYLQMNSLRAGDTAVYYCARGDSSGYYYYFDYWGQGTLLTVSS
VL: DIEMTQSPSSLSAAVGDRVTITCRASQSIGSYLNWYQQKPGKAPKLLIYAASSLQSGVPSRFSGSGSGTDFTLTISSLQPEDFAIYYCQQSYVSPTYTFGPGTKVDIK
B7: COVA1-16 (antibody, V domains shown)
VH: QVQLVQSGAEVKKPGASVKVSCKASGYTFTSYYMHWVRQAPGQGLEWMGIINSSGGSTSYAQKFQGRVTMTRDTSTSTVYMELSSLRSEDTAVYYCARPPRNYYDRSGYYQRAEYFQHWGQGTLVTVSS
VL: DIQLTQSPSSLSASVGDRVTITCQASQDISNYLNWYQQRPGKAPKLLIYDASNLETGVPSRFSGSGSGTDFTFTISSLQPEDIATYYCQQYDNPPLTFGGGTKLEIK
B8: COVA2-16 (antibody, V domains shown)
VH: QVQLVQSGAEVKKPGATVKISCKVSGYTFTDYYMHWVQQAPGKGLEWMGLVDPEDGETIYAEKFQGRVTITADTSTDTAYMELSSLRSEDTAVYYCASSDSSGFVGSRGFDYWGQGTRVTVSS
VL: DIQLTQSPSSLSASVGDRVTITCRASQGIRNDLGWYQQKPGKAPKRLIYAASSLQSGVPSRFSGSGSGTEFTLTISSLQPEDFATYYCLQHNSYPPLFGQGTKVEIK
B9: COVA2-43 (antibody, V domains shown)
VH: QVQLVQPGAEVKKPGASVKVSCKASGYTFTSYGISWVRQAPGQGLEWMGWISAYNGDTNYAQKLQGRVTMTTDTSTSTAYMELRSLKSDDTAVYYCARFDYGYPYSSWSVLSIDYWGQGTLVTVSS
VL: B8 VL with Q3V, L4M, P96L, L97T, Q100G, V104L
B10: COVA2-20 (antibody, V domains shown)
VH: EVQLVESGGGLIQPGGSLRLSCAASGFTVSSNYMSWVRQAPGKGLEWVSVIYSGGSTYYADSVKGRFTISRDNSKNTLYLQMNSLRAEDTAVYYCASPLLLTPPDYYYYMDVWGKGTMVTVSS
VL: B8 VL with I2V, Q3V, L4M, A13V, P95L, P96W, L97T, V104L
B11: COVA2-28 (antibody, V domains shown)
VH: EVQLVESGGGVVQPGRSLRLSCAASGFTFSSYGMHWVRQAPGKGLEWVAVIWYDGSNKYYADSVKGRFTISRDNSKNTLYLQMDSLRAEDTAMYYCAKDKAPPCSSGWYYFDYWGQGTLVTVSS
VL: not shown
B12: COVA2-41 (antibody, V domains shown)
VH: EVQLVESGGGLVKPGGSLRLSCSASGFTFSNYNMDWVRQAPGKGLEWVSSISSSSSYIYLADSVKGRFTISRDNAKNSLYLQMNSLRAEDTAVYYCARVQKDIVVVPVALADYYYYGMDVWGQGTTVTVSS
VL: DIVMTQSPATLSVSPGERATLSCRASQSVSSNLAWYQQKPGQAPRLLIYGASTRATGIPARFSGSGSGTEFTLTISSLQPEDFAVYYCQQCYNWPPWTFGQGTRVEFK
B13: S2X35 (antibody, V domains shown)
VH: QVQLVQSGAEVKKPGASVKVSCKASGYTFTNYGISWVRQAPGQGLEWMGWISAYKGNTNYAQKLQGRVTMTTDTSTSTAYMELRSLRSDDTAVYYCARPDYQVLGYDFWIGYYGMDVWGQGTTVIVSS
VL: QSVLTQPPSVSGAPGQRVTISCTGSSSNIGAGYDVHWYQQLPGTAPKLLIYGNTNRPSGVPDRFSGSKSGTSASLAITGLQAEDEADYYCQSYDSSLSGSEVVFGGGTKLTVL
B14: COVA2-02 (antibody, V domains shown)
VH: VQLQQESGPGLVKPSETLSLTCTVSGGSISSSSYYWGWIRQPPGKGLEWIGSIYYSGSTYYNPSLKSRVTISVDTSKNQFSLKLSSVTAADTAVYYCARRSTSRWGYYYMDVWGKGTRVTVSS
VL: DIVMTQSPSSLSASVGDRVTITCRASQSISNYLNWYQQKPGKAPKLLLYAASDLQSGVPSRFSGSGSGTDFTLTISSLQPEDFATYYCQQSYSTHMSTFGQGTKVDIK
B15: S2E12 (antibody, V domains shown)
VH: not shown
VL: DIVLTQTPGTLSLSPGERATLSCRASQSVSSSYLAWYQQKPGQAPRLLIYGASSRATGIPDRFSGSGSGTDFTLTISRLEPEDFAVYYCQQYVGLTGWTFGQGTKVEIK
B16: P2B-2F6 (antibody, V domains shown)
VH: QVQLQESGPGLVKPSETLSLTCTVSGYSISSGYYWGWIRQPPGKGLEWIGSIYHSGSTYYNPSLKTRVTISVDTSKNQFSLKLSSVTAADTAVYYCARAVVGIVVVPAAGRRAFDIWGQGTMVTVSS
VL: QSALTQPPSASGSPGQSVTISCTGTSSDVGGYNYVSWYQQHPGKAPKLMIYEVSKRPSGVPDRFSGSKSGNTASLTVSGLQAEDEADYYCSSYAGSNNLVFGGGTKLTVL
B17: COVA2-18 (antibody, V domains shown)
VH: EVQLVQSGAEVKKPGSSVKVSCKASGGTFSSYAISWVRQAPGQGLEWMGGIIPIFGTTNYAQKFQGRVTITTDESTSTAYMELSSLRSEDTAVYYCARVYSYDSSGYYLEYWGQGTRVTVSS
VL: EIVLTQSPATLSLSPGERATLSCRASQSVSSYLAWYQQKPGQAPRLLIYDASNRATGIPARFSGSGSGTDFTLTISSLEPEDFAVYYCQQRSNWPPSITFGQGTRLEIK
B18: S2M11 (antibody, V domains shown)
VH: EVQLVQSGAEVKKPGASVKVSCKASGYTFTGYYMHWVRQAPGQGLEWMGWINPISSGTSYAQTFQGRVTMTSDTSITTAYMELSRLRSDDTAVYYCARAAPFYDFWSGYSYFDYWGQGTLVTVSS
VL: not shown
B19: COVA2-17 (antibody, V domains shown)
VH: QVQLVESGAEVKKPGSSVKVSCKASGGTFSSYGINWVRQAPGQGLEWMGGIIPIFGTANYAQKFQGRVTITTDESTSTAYMELSSLRSEDTAVYYCASFGDDSGDEGVRWGQGTLVTVSS
VL: EIVMTQSPATLSLSPGERATLSCRASQSVSSYLAWYQQKPGQAPRLLIYDASNRATGIPARFSGSGSGTDFTLTISSLEPEDFAVYYCQQRSNWPPYTFGQGTKVEIK
B20: COVA2-07 (antibody, V domains shown)
VH: EVQLVETGGGLIQPGGSLRLSCAASGLTVSSNYMNWVRQAPGKGLEWVSVIYSGGSTYYADSVKGRFTISRDNSKNTLYLQMNSLRAEDTAVYYCAREAYGMDVWGQGTMVTVSS
VL: not shown
B21: COVA2-11 (antibody, V domains shown)
VH: EVQLVESGAEVKKPGSSVKVSCKASGGTLSSYAISWVRQAPGQGLEWMGGIIPIFGTANYAQKFQGRVTITTDESTSTAYMELSSLRSEDTAVYYCARGPRGCSSTSCYGSYFDYWGQGTLVTVSS
VL: not shown
B22: COVA2-24 (antibody, V domains shown)
VH: EVQLVQSGAEVKKPGESLRISCKGSGYSFTSYWISWVRQMPGKGLEWMGRIDPSDSYTNYSPSFQGHVTISADKSISTAYLQWSSLKASDTAMYYCARPNPAGGYDSSGWVDAFDIWGQGTRVTVSS
VL: not shown
B23: COVA2-05 (antibody, V domains shown)
VH: EVQLLESGAEVKKPGESLKISCKGSGYSFTSYWIGWVRQMPGKGLEWMGIIYPGDSDTRYSPSFQGQVTISADKSISTAYLQWSSLKASDTAMYYCARHMRPSIAARPGYQYYMDVWGKGTRVTVSS
VL: not shown

Where a chain is given by its changes, count along the chain named. Names and notes keep the numbering of the source.

One assay addresses SARS-CoV-2 hexaproline stabilized pre-fusion spike glycoprotein (S6P) (SARS-CoV-2, ancestral (Wuhan-Hu-1 …, UniProt P0DTC2, stabilised)).
As for B1, the binding result was “binds”.

With B2, the binding result is “binds”.

As to B3, the binding result was “binds”.

Consider B4, for which the binding result is given as “binds”.

B5: the binding result is “binds”.

Regarding B6, the binding result is recorded as “binds”.

As for B7, the binding result was “binds”.

In the case of B8, the binding result is given as “binds”.

As to B9, the binding result was “binds”.

Turning to B10, the binding result was “binds”.

On to B11, for which the binding result is given as “binds”.

B12: the binding result is listed as “binds”.

For the molecule B13, the binding result was “binds”.

For B14, the binding result is on record as “binds”.

In the case of B15, the binding result was “binds”.

On to B16, for which the binding result is “binds”.

With B17, the binding result is reported as “binds”.

On to B18, for which the binding result is given as “binds”.

For the molecule B19, the binding result is on record as “binds”.

The target of the next assay is SARS-CoV-2 Receptor Binding Domain (RBD) (SARS-CoV-2, UniProt P0DTC2).
In the case of B1, the binding result is “binds”.

With B20, the binding result was “binds”.

For B7, the binding result is on record as “binds”.

For B8, the binding result is on record as “binds”.

For the molecule B10, the binding result is reported as “binds”.

B21: the binding result was “binds”.

On to B14, for which the binding result was “binds”.

With B22, the binding result is reported as “binds”.

B23: the binding result is listed as “binds”.

Take B19: the binding result is “binds”.

The record behind these values is article PMC10318062 (Nature Communications, 2023).
